Assay results: PMC4811492, “Dimeric peroxiredoxins are druggable targets in human Burkitt lymphoma” (Oncotarget, 2015)

Columns and labels:
[1] = target: the molecule itself; experiment: cross-linking; Raji or Ramos cells cultured with SK053 (10 uM, or indicated concentrations for 24 h) or SK-bio (55 uM, time course); lysates resolved under denaturing and reducing conditions, immunoblot with PRDX-specific antibodies; monomer ~22 kDa, dimer ~44 kDa
[2] = target: the molecule itself; experiment: cross-linking; HEK293T cells transfected with pLenti6-PRDX1-V5 (WT or Cys-to-Ala variants), 24 h later 41 uM SK053 or DMSO for 24 h; immunoblot with anti-V5 and anti-PRDX1
[3] = target: the molecule itself; experiment: cross-linking; recombinant human PRDX1 incubated with SK-bio in vitro (Supplementary Figure S7); dimer formation less efficient than in cells

Protein	stoichiometry N [1]	stoichiometry N [2]	further results
peroxiredoxin 4 (PRDX4), endogenous in Burkitt lymphoma cells (enzyme, human (endogenous in Raji and Ramos), UniProt Q13162 38-271, looked up, peroxiredoxin 4, human, endogenous in Raji and Ramos cells; source: endogenous, Raji and Ramos cells) WETEERPRTREEECHFYAGGQVYPGEASRVSVADHSLHLSKAKISKPAPYWEGTAVIDGEFKELKLTDYRGKYLVFFFYPLDFTFVCPTEIIAFGDRLEEFRSINTEVVACSVDSQFTHLAWINTPRRQGGLGPIRIPLLSDLTHQISKDYGVYLEDSGHTLRGLFIIDDKGILRQITLNDLPVGRSVDETLRLVQAFQYTDKHGEVCPAGWKPGSETIIPDPAGKLKYFDKLN	2		
peroxiredoxin 2 (PRDX2), endogenous in Burkitt lymphoma cells (enzyme, human (endogenous in Raji and Ramos), UniProt P32119 1-198, looked up, peroxiredoxin 2, human, endogenous in Raji and Ramos cells; source: endogenous, Raji and Ramos cells) MASGNARIGKPAPDFKATAVVDGAFKEVKLSDYKGKYVVLFFYPLDFTFVCPTEIIAFSNRAEDFRKLGCEVLGVSVDSQFTHLAWINTPRKEGGLGPLNIPLLADVTRRLSEDYGVLKTDEGIAYRGLFIIDGKGVLRQITVNDLPVGRSVDEALRLVQAFQYTDEHGEVCPAGWKPGSDTIKPNVDDSKEYFSKHN	2		
peroxiredoxin 3 (PRDX3), endogenous in Burkitt lymphoma cells (enzyme, human (endogenous in Raji and Ramos), UniProt P30048 62-256, looked up, peroxiredoxin 3, human, endogenous in Raji and Ramos cells; source: endogenous, Raji and Ramos cells) APAVTQHAPYFKGTAVVNGEFKDLSLDDFKGKYLVLFFYPLDFTFVCPTEIVAFSDKANEFHDVNCEVVAVSVDSHFSHLAWINTPRKNGGLGHMNIALLSDLTKQISRDYGVLLEGSGLALRGLFIIDPNGVIKHLSVNDLPVGRSVEETLRLVKAFQYVETHGEVCPANWTPDSPTIKPSPAASKEYFQKVNQ	2		
peroxiredoxin 1 (PRDX1), endogenous in Burkitt lymphoma cells (enzyme, human (endogenous in Raji and Ramos), UniProt Q06830 1-199, looked up, peroxiredoxin 1, human, endogenous in Raji and Ramos Burkitt lymphoma cells; source: endogenous, Raji and Ramos cells) MSSGNAKIGHPAPNFKATAVMPDGQFKDISLSDYKGKYVVFFFYPLDFTFVCPTEIIAFSDRAEEFKKLNCQVIGASVDSHFCHLAWVNTPKKQGGLGPMNIPLVSDPKRTIAQDYGVLKADEGISFRGLFIIDDKGILRQITVNDLPVGRSVDETLRLVQAFQFTDKHGEVCPAGWKPGSDTIKPDVQKSKEYFSKQK	2		
V5-tagged human wild-type PRDX1 (enzyme, UniProt Q06830 1-199, looked up, peroxiredoxin 1, human, wild type, expressed from pLenti6/V5-DEST-PRDX1; The vector pLenti6/V5-DEST usually adds the V5 tag at the C-terminus (surmised; the plasmid is printed as PRDX1-V5); also called PRDX1-V5; WT; source: HEK293T, transfected (pLenti6-PRDX1-V5), in cells) MSSGNAKIGHPAPNFKATAVMPDGQFKDISLSDYKGKYVVFFFYPLDFTFVCPTEIIAFSDRAEEFKKLNCQVIGASVDSHFCHLAWVNTPKKQGGLGPMNIPLVSDPKRTIAQDYGVLKADEGISFRGLFIIDDKGILRQITVNDLPVGRSVDETLRLVQAFQFTDKHGEVCPAGWKPGSDTIKPDVQKSKEYFSKQK		2	
native untagged PRDX1, endogenous in HEK293T cells (enzyme, human (endogenous in HEK293T), UniProt Q06830 1-199, looked up, peroxiredoxin 1, human, endogenous untagged protein of HEK293T cells; also called native untagged form; source: endogenous, HEK293T cells) MSSGNAKIGHPAPNFKATAVMPDGQFKDISLSDYKGKYVVFFFYPLDFTFVCPTEIIAFSDRAEEFKKLNCQVIGASVDSHFCHLAWVNTPKKQGGLGPMNIPLVSDPKRTIAQDYGVLKADEGISFRGLFIIDDKGILRQITVNDLPVGRSVDETLRLVQAFQFTDKHGEVCPAGWKPGSDTIKPDVQKSKEYFSKQK		2	
recombinant human PRDX1 (enzyme, UniProt Q06830 1-199, looked up, peroxiredoxin 1, human, recombinant) MSSGNAKIGHPAPNFKATAVMPDGQFKDISLSDYKGKYVVFFFYPLDFTFVCPTEIIAFSDRAEEFKKLNCQVIGASVDSHFCHLAWVNTPKKQGGLGPMNIPLVSDPKRTIAQDYGVLKADEGISFRGLFIIDDKGILRQITVNDLPVGRSVDETLRLVQAFQFTDKHGEVCPAGWKPGSDTIKPDVQKSKEYFSKQK			stoichiometry N [3]: 2
V5-tagged human PRDX1 C83A (enzyme, UniProt Q06830 1-199, looked up, peroxiredoxin 1, human, Cys83 (outside the active site) changed to Ala; The vector pLenti6/V5-DEST usually adds the V5 tag at the C-terminus (surmised); source: HEK293T, transfected (pLenti6-PRDX1-V5), in cells) MSSGNAKIGHPAPNFKATAVMPDGQFKDISLSDYKGKYVVFFFYPLDFTFVCPTEIIAFSDRAEEFKKLNCQVIGASVDSHFAHLAWVNTPKKQGGLGPMNIPLVSDPKRTIAQDYGVLKADEGISFRGLFIIDDKGILRQITVNDLPVGRSVDETLRLVQAFQFTDKHGEVCPAGWKPGSDTIKPDVQKSKEYFSKQK		2	
